Experimental data from US20220211858A1, “TUBULAR SUPRAMOLECULAR POLYMERS” (priority 2019, published 2022).
Where two headings read alike, the source gives them in different places.

Columns and labels:
[1] = Maximum tolerated dose (MTD) dose escalation study; format: in vivo, athymic nude mice; conditions: for Maximum % BW loss: n=3
Protocol: Maximum tolerated dose (MTD) studies. MTD of SAPD 1 has been previously determined in our lab (Table 1). MTDs of other SAPDs were determined by dose escalation studies in healthy female athymic nude mice (Charles River, 12-13 weeks old). A single intravenous (i.v.) injection of SAPD was dosed at day 1 and the body weights of each mouse (n=3) were recorded every day for six days and every the other day until two weeks. The dosing volume was determined based upon a ratio of 200 μL for a 20 g mouse. Doses of SAPDs used in the studied were 108, 72, 54, 45, 36 and 18 mg/kg (CPT equivalent).

[2] = Critical micellization concentration (CMC) via Nile Red encapsulation; format: physicochemical; conditions: SAPDs, PBS buffer, Nile Red method
Protocol: Nile Red is a hydrophobic, solvatochromic dye that fluoresces intensely upon exposure to hydrophobic environments compared with its strongly quenched and red-shifted fluorescence in aqueous environments. The CMC of the TTs was determined by incubating these molecules at various concentrations with a fixed content of Nile Red. 10 μL of a 1 mM Nile Red stock solution in acetone was added to each microcentrifuge tube to be used, with the acetone allowed to evaporate in a dark area. TT solutions of various concentrations were subsequently added to the Nile Red containing tubes and equilibrated overnight. The emission spectrum for each sample was then recorded on a Fluorolog spectrofluorometer (Horiba Jobin Yvon Inc., Edison, N.J.), acquiring between 580 and 720 nm with an excitation wavelength of 550 nm.
CMC Measurement of SAPDs of TT1. We next assessed the CMC values for each of the designed SAPDs in aqueous solution. […] Experimentally, the CAC is often measured using spectrometry techniques such as circular dichroism (CD) to reveal the presence of intermolecular associations and packing at a much lower concentration. In the case reported here, the CMC values were measured in the PBS buffer using Nile Red as a probe, which fluoresces intensely in hydrophobic environments and is strongly quenched and red-shifted in aqueous media. […]

HT-29 cells = tested on: HT-29 cells
Description: Antitumor efficacy study of SAPDs at the same dose on a HT-29 tumor model. […] When the averaged tumor size reached 75-95 mm^3, mice were randomly divided into six groups. […] The tumor volumes and body weights were monitored and recorded every two or three days. The tumor volume was estimated by measuring the length and width with calipers and using the equation “tumor volume=(length×width^2)/2”. Mice were euthanized once the tumor volume reached 1000 mm^3.

[3] = Circulation studies of SAPDs in rats; format: in vivo, Sprague Dawley (SD) rats; conditions: 10 mg/kg i.v.
Protocol: Circulation studies of SAPDs in rats. Female Sprague Dawley (SD) Rats (200-250 g) were randomly grouped into four groups with three rats in each group. SAPDs were all intravenously (i.v.) dosed at 10 mg/kg (CPT equivalent). The dosing volumes of SAPDs were estimated by a ratio of 1 mL for a 200 g rat. The blood samples were collected at 5 min, 15 min, 30 min, 1 h, 2 h, 4 h, 8 h, and 12 h, which were immediately centrifuged to take plasma for further analysis and stored at −80° C. The plasma proteins were precipitated using similar protocols as mentioned above in drug release section and the determination of SAPDs and free CPT in the plasma by UPLC also used the same conditions.
Estimation of SAPD concentration in plasma upon injection. To calculation the concentration after dilution, we simply set the following parameters: body weight of mice (20 g), dosing volume of mice (200 μL), blood volume of mice (1.8 mL), body weight of rat (200 g), dosing volume of mice (1 mL), blood volume of mice (18 mL) and the dosage for both mice and rats (10 mg/kg).

[4] = Maximum tolerated dose (MTD) dose escalation study; design: species or system athymic nude mice; conditions: female, athymic nude, mouse, in vivo, intravenous, three doses, four days a dose; ½ of single-injection MTD; read-out: MTD of multiple injections
[5] = Drug release from TT 1 nanotubes with or without GSH; format: physicochemical; conditions: 200 μM
Protocol: The release of free CPT from TT 1 nanotubes was evaluated in the presence or absence of GSH. Stock solutions of 400 μM of TT 1 in deionized water were prepared and diluted to 200 μM with 20 mM PBS buffer with or without GSH (20 mM). Three replicate experiments were prepared together for both conditions. The solutions were incubated at 37° C. and samples were collected at 0 min, 10 min, 20 min, 30 min, 1 h, 2 h, 4 h, 6 h, 8 h, 12 h and 24 h. For each collected sample, the reductive release was halted by acidification of the solution through the addition of 0.2 μL of 2M HCl. Samples were then frozen with liquid nitrogen and stored at −30° C. until analysis. The amount of released CPT was monitored by RP-HPLC using the following conditions: Varian Pursuit XRs C18 (5 μm, 150×4.6 mm); 362 nm detection wavelength; 1 ml/min flow rate; the gradient began at 90% of mobile phase A (0.1% aqueous TFA) and 10% of mobile phase B (acetonitrile containing 0.1% TFA) increasing to 90% mobile phase B by 15 min and held for another 1 min before decreasing to the initial solvent composition at 20 minutes. Selected time points were characterized and data were plotted as a percentage of the total expected CPT concentration.

[6] = TEM / cryo-TEM imaging of self-assembled nanostructures (dimensions); format: physicochemical; conditions: 2 mM in water

## CC[C@]1(OC(=O)OCCSSC[C@@H](NC(C)=O)C(=O)N[C@@H](CCCCNC(=O)[C@@H](CSSCCOC(=O)O[C@]2(CC)C(=O)OCc3c2cc2n(c3=O)Cc3cc4ccccc4nc3-2)NC(C)=O)C(=O)N[C@@H](CCCCNC(=O)CCOCCOCCOCCOCCOC)C(=O)N[C@@H](CCCCNC(=O)CCOCCOCCOCCOCCOC)C(N)=O)C(=O)OCc2c1cc1n(c2=O)Cc2cc3ccccc3nc2-1 [TT 1]
[1]; female, athymic nude, mouse, in vivo, iv, single i.v. injection, CPT equivalent, healthy athymic nude mice
  MTD: 24 mg/kg
[1]; single i.v. dose 4.5 mg/kg
  Survival/Total: 3/3
[1]; single i.v. dose 4.5 mg/kg (CPT equivalent)
  Maximum % BW loss: 0%
[1]; single i.v. dose 9 mg/kg
  Survival/Total: 3/3
  day of maximum BW loss: 1 days
[1]; single i.v. dose 9 mg/kg (CPT equivalent)
  Maximum % BW loss: 5.1%
[1]; single i.v. dose 15 mg/kg
  Survival/Total: 3/3
  day of maximum BW loss: 2 days
[1]; single i.v. dose 15 mg/kg (CPT equivalent)
  Maximum % BW loss: 5.0%
[1]; single i.v. dose 18 mg/kg
  Survival/Total: 3/3
  day of maximum BW loss: 1 days
[1]; single i.v. dose 18 mg/kg (CPT equivalent)
  Maximum % BW loss: 6.5%
[1]; single i.v. dose 24 mg/kg
  Survival/Total: 3/3
  day of maximum BW loss: 3 days
[1]; single i.v. dose 24 mg/kg (CPT equivalent)
  Maximum % BW loss: 9.8%
[1]; single i.v. dose 30 mg/kg
  Survival/Total: 1/3
  day of maximum BW loss: 4 days
[1]; single i.v. dose 30 mg/kg (CPT equivalent)
  Maximum % BW loss: 20.6%
[1]; single i.v. dose 36 mg/kg
  Survival/Total: 0/3
  day of maximum BW loss: 3 days
[1]; single i.v. dose 36 mg/kg (CPT equivalent)
  Maximum % BW loss: 21.2%
[1]; single i.v. dose 54 mg/kg
  Survival/Total: 0/3
  day of maximum BW loss: 3 days
[1]; single i.v. dose 54 mg/kg (CPT equivalent)
  Maximum % BW loss: 20%
[2]
  CMC: 2.7 µM
HT-29 cells; 10 mg/kg i.v.
  toxicity according to body weight change: most toxicity
HT-29 cells; SAPDs 10 mg/kg i.v. days 1, 5, 9, 13, irinotecan 100 mg/kg i.p. days 1, 8, 15
  median survival: 56 days
HT-29 cells; day 25, SAPDs 10 mg/kg (CPT equivalent) i.v. days 1, 5, 9, 13, irinotecan 100 mg/kg i.p. days 1, 8, 15
  mean tumor volume: 60 mm^3
[3]; 5 min
  CPT remained in the bounded form: 86%
[3]; 1 h
  total CPT concentration in plasma: 15.3 µM
  total CPT retained in the conjugate form: more than 72%
[3]; 2 h
  total CPT concentration in plasma: 8.1 µM
[4]
  MTD: 12 mg/kg
[5]; 10 mM GSH, 37° C., by 6 h
  conjugated CPT released: ~100%
[5]; without GSH, 24 h
  conjugates degraded (hydrolysis): less than 10%
[6]
  diameter of supramolecular filaments: around 9 nm
